From patent publication US20220259593A1, “CONTROL OF MAMMALIAN GENE DOSAGE USING CRISPR” (The Regents of the University of California, priority 2019, published 2022)
Substitutions are numbered along the chain they refer to.

B1: cr450 (nucleic acid)
guide: GTTTAAGAGCTAAGCTGGAAACAGCATAGCAAGTTTAAATAAGGCTAGTCCGTTATCAACTTGAGAAAGTGGCGCCGAGTCGGCGCT
modifications: listed as DNA, chemistry not fully specified
B2: cr612 (nucleic acid)
guide: B1 guide with A20T, G65A, G74A, C84T
modifications: listed as DNA, chemistry not fully specified
B3: cr116 (nucleic acid)
guide: B1 guide with T61G, G65A, A68C, G74A, C84T
modifications: listed as DNA, chemistry not fully specified
B4: cr284 (nucleic acid)
guide: B1 guide with G74A, G77A, C81T, C84T
modifications: listed as DNA, chemistry not fully specified
B5: cr529 (nucleic acid)
guide: B1 guide with G65A, G74A, C76T, G82A, C84T
modifications: listed as DNA, chemistry not fully specified
B6: cr253 (nucleic acid)
guide: B1 guide with A59G, T61C, G65A, A68G, T70C, G74A, G77T, C81A, C84T
modifications: listed as DNA, chemistry not fully specified
B7: cr546 (nucleic acid)
guide: B1 guide with C60A, G69T, G74A, C84T
modifications: listed as DNA, chemistry not fully specified
B8: cr983 (nucleic acid)
guide: B1 guide with G65A, C73T, G74A, C84T
modifications: listed as DNA, chemistry not fully specified
B9: cr285 (nucleic acid)
guide: B1 guide with C22A, G65A, G74A, C84T
modifications: listed as DNA, chemistry not fully specified
B10: cr780 (nucleic acid)
guide: B1 guide with T62G, G65A, A67C, G74A, G77T, C81A, C84T
modifications: listed as DNA, chemistry not fully specified
B11: cr823 (nucleic acid)
guide: B1 guide with T62A, G65A, A67T, G74A, C76T, G82A, C84T
modifications: listed as DNA, chemistry not fully specified
B12: cr614 (nucleic acid)
guide: B1 guide with G18A, G65A, G74A, C84T
modifications: listed as DNA, chemistry not fully specified
B13: cr371 (nucleic acid)
guide: B1 guide with T54C, T56G, G65A, G74A, G79C, C84T
modifications: listed as DNA, chemistry not fully specified
B14: cr291 (nucleic acid)
guide: B1 guide with G65A, G72C, G74A, C75T, G83A, C84T, C86G
modifications: listed as DNA, chemistry not fully specified
B15: cr908 (nucleic acid)
guide: B1 guide with G74A, C75T, G83A, C84T
modifications: listed as DNA, chemistry not fully specified
B16: cr231 (nucleic acid)
guide: B1 guide with T49A, G74A, C84T
modifications: listed as DNA, chemistry not fully specified
B17: cr553 (nucleic acid)
guide: B1 guide with A47G, G65T, G74A, C84T
modifications: listed as DNA, chemistry not fully specified
B18: cr421 (nucleic acid)
guide: B1 guide with G65A, A68C, G74A, C84T
modifications: listed as DNA, chemistry not fully specified
B19: cr304 (nucleic acid)
guide: B1 guide with C60T, G69A, G74A, C84T
modifications: listed as DNA, chemistry not fully specified
B20: cr630 (nucleic acid)
guide: B1 guide with A55G, T56C, G65A, G74A, G79C, C84T
modifications: listed as DNA, chemistry not fully specified
B21: cr243 (nucleic acid)
guide: B1 guide with T62C, G65A, A67G, G74C, C76T, G82A, C84G
modifications: listed as DNA, chemistry not fully specified
B22: cr822 (nucleic acid)
guide: B1 guide with T49A, G65A, A66C, G74A, C84T
modifications: listed as DNA, chemistry not fully specified
B23: cr142 (nucleic acid)
guide: B1 guide with G65A, G74A, G77T, C81A, C84T
modifications: listed as DNA, chemistry not fully specified
B24: cr375 (nucleic acid)
guide: B1 guide with G17T, G65A, G74A, C84T
modifications: listed as DNA, chemistry not fully specified
B25: cr576 (nucleic acid)
guide: B1 guide with T16C, G65A, G74A, C84T
modifications: listed as DNA, chemistry not fully specified
B26: cr953 (nucleic acid)
guide: B1 guide with G65A, G74A, A78C, C84T
modifications: listed as DNA, chemistry not fully specified
B27: cr703 (nucleic acid)
guide: B1 guide with A66G, G74A, C84T
modifications: listed as DNA, chemistry not fully specified
B28: cr693 (nucleic acid)
guide: B1 guide with G65A, G74T, G77A, C81T, C84A
modifications: listed as DNA, chemistry not fully specified
B29: cr361 (nucleic acid)
guide: B1 guide with G17C, G65A, G74A, C84T
modifications: listed as DNA, chemistry not fully specified
B30: cr719 (nucleic acid)
guide: B1 guide with G65A, G74A, C84T, C86A
modifications: listed as DNA, chemistry not fully specified
B31: cr577 (nucleic acid)
guide: B1 guide with A28G, A42G, A55C, G65A, G74A, C84T
modifications: listed as DNA, chemistry not fully specified
B32: cr718 (nucleic acid)
guide: B1 guide with A59T, G65A, T70A, G74C, C84G
modifications: listed as DNA, chemistry not fully specified

tested on: K562 CRISPRi cells; experiment: Constant region variant library pooled growth screen, K562; type: cell-based, human; details: sgRNA constant region variants; activity relative to the original, un-modified constant region cr995
Description: We calculated relative activities for each targeting sequence:constant region pair by normalizing its phenotype to that of the targeting sequence paired with the unmodified constant region, identifying 409 constant region variants that on average conferred intermediate activity (0.1-0.9, FIG. 5B). Ten variants selected for individual evaluation also mediated intermediate levels of mRNA knockdown (FIG. 6B). Mapping the activities of constant region variants with single base substitutions onto the structure recapitulated known relationships between constant region structure and function (FIG. 5C).
The sequences in the library of modified constant regions were derived from the sgRNA (F+E) optimized sequence (23) modified to include a BlpI site (15). Each modified constant region was paired with 36 sgRNA targeting sequences (3 sgRNAs targeting each of 10 essential genes and six non-targeting negative control sgRNAs). The cloning strategy (described below) allowed the mutation of most positions in the sgRNA constant region. A variety of modifications were made, including substitutions of all single bases not in the BlpI restriction site (which is used for cloning), double substitutions including all substitutions at base-paired position pairs not before or in the BlpI site, and a variety of triple, quadruple, and sextuple substitutions, including base-pair-preserving substitutions at adjacent base-pairs.
The library was ordered and cloned in two parts. One part consisted of ˜100 modifications to the eight bases upstream of the BlpI restriction site. Constant region variants with mutations in this section were paired with each of the 36 targeting sequences, ordered as a pooled oligonucleotide library (Twist Biosciences), and cloned into pCRISPRia-v2 as described above. The second part consisted of ˜900 modifications to the 71 bases downstream of the BlpI restriction site. This part was cloned in two steps. First, all 36 targeting sequences were individually cloned into pCRISPRia-v2 as described above. The vectors were then pooled at an equimolar ratio and digested with BlpI (NEB) and XhoI (NEB). The modified constant region variants were ordered as a pooled oligonucleotide library (Twist Biosciences), PCR amplified with Phusion polymerase (NEB), digested with BlpI (NEB) and XhoI (NEB), and ligated into the digested vector pool, in a manner identical to previously published protocols and as described above, except for the different restriction enzymes.
Screens with the compact mismatched sgRNA library and the constant region library were conducted largely as described above, with smaller modifications during the screening procedure and an updated sequencing library preparation protocol. Briefly, the libraries were transduced in duplicate into K562 CRISPRi (both libraries) or HeLa CRISPRi cells (compact mismatched sgRNA library) as described above. K562 replicates were maintained separately in 0.15 to 0.3 L of RPMI-1640 in 0.3 L spinner flasks for the course of the screen. HeLa replicates were maintained in sets of ten 15-cm plates. Cells were selected with puromycin as described above (K562: 1 day of 0.75 μg/mL and 1 day of 0.85 μg/mL; HeLa: 2 days of 0.8 μg/mL and 1 day of 1 μg/mL). The remainder of the screen was carried out at >1000× library coverage (K562 compact mismatched sgRNA library: >2000×; HeLa compact mismatched sgRNA library: >1000×; K562 constant region library: >2000×). Multiple samples were harvested after 4 to 8 days of growth. For the drug screen, 10 μM lovastatin (ApexBio) or an equivalent volume of DMSO (vehicle) was added to flasks at t=0, and 3 days later cells were pelleted and re-suspended in fresh medium. Lovastatin (12 μM) or DMSO was again added after 5 and 9 days of growth, with media exchanges 3 days after drug supplementation. Multiple samples were harvested after 4 to 8 days for the K562 and HeLa growth screens. […]

Molecule	Mean relative activity
B1	1.064
B2	1.064
B3	1.064

same assay, conditions: sgRNA constant region variants; activity relative to the un-modified constant region cr995

Molecule	Mean relative activity
B4	0.9497
B5	0.9488
B6	0.9384
B7	0.9326
B8	0.9491
B9	0.9449
B10	0.9287
B11	0.936
B12	0.927
B13	0.9355
B14	0.9321
B15	0.9455
B16	0.9485
B17	0.9385
B18	0.9381
B19	0.9285
B20	0.9325
B21	0.9319
B22	0.9333
B23	0.9406
B24	0.9294
B25	0.935
B26	0.9337
B27	0.9472
B28	0.9369
B29	0.9312
B30	0.9381
B31	0.9309
B32	0.9447
